Results published in the DeepSol protein solubility set.

Experiment: soluble on expression in E. coli; label from the status in PepcDB or PDB records

Row | Sequence | soluble on expression in E. coli
1 | SNAMKNYTLISPCFFGMEKMLAREITNLGYEIIKTEDGRITYKTDEFGIAKSNMWLRCAERVHLKIAEFEAKSFDELFENTKRINWSRYIPYGAQFPISKASSIKSKLYSTPDVQAIVKKAIVESLKKSYLEDGLLKEDKEKYPIFVFIHKDKVTISIDTTGDALHKRGYREKANKAPIRETLAAGLIYLTPWKAGRVLVDPMCGSGTILIEAAMIGINMAPGLNREFISEKWRTLDKKIWWDVRKDAFNKIDNESKFKIYGYDIDEESIDIARENAEIAGVDEYIEFNVGDATQFKSEDEFGFIITNPPYGERLEDKDSVKQLYKELGYAFRKLKNWSYYLITSYEDFEYEFGQKADKKRKLYNGMLKTNFFQYPGPKPPRNNK | soluble
2 | SNAMKQLSGLLGELRQKLCAGFPEQAGIQQLIFPAPGLVGRQLLEWLTAQTHFPQFYWRHRDNHEEAAVCGQTRSFADMKDADDFIQQNPDANGLRIWGLNAFEPVMVFGQLTDNGLVSGKNAQASFLFLPRLEILRRGKKTSLTLNLSSETSLQKDALQAITFIDQLMAARALPVLNARIQHSSHTPGYPQWRNLIQQALNDIEQQKLDKVVLARTTTLTLNKPLSCAAFMAASRQVNHRCYHFMLRFDDRQAFLGSSPERLYLRQQLHLETEALAGTVSNLDSDPQAAVLADWLMHDEKNQRENLLVVDDICQRLQGGVTAVDVMPPEIIRLRKVQHLRRRICAQLSRASDTDCLQRLQPTAAVAGLPREAARQFIAKHELFSRGWYAGSAGYLSLKRTEFSVALRSARVDGQQIHLYAGAGIVAGSDAEQEWQEIDNKSAGLQSLLEHEAQPVKA | soluble
3 | SNAMMIKASTNEFRFCFKQMNKSQHELVLGWIHQPHINEWLHGDGLSNTIKDLHEFLNDGKPWATHWIAYDNEIPFAYLITSEIEKSEEYPDGAVTLDLFICRLDYIGKGLSVQMIHEFILSQFSDTKIVLINPEISNERAVHVYKKAGFEIIGEFIASWHPVPHYKMKLCIEDLKKQRLSA | soluble
4 | SNAMNDIVASTQLPNTIKTITNDLRKLGLKKGMTVIVHSSLSSIGWISGGAVAVVEALMEVITEEGTIIMPTQSSDLSDPKHWSRPPVPEEWWQIIRDNVPAFEPHITPTRAMGKVVECFRTYPNVVRSNHPLGSFAAWGRHAEEITVNQSLSMSLGEESPLRKIYDLDGYILLIGVGYDSNTSVALSEVRSGACELIKVGAPIIENGERVWKEFVDMDYDSDKFVEIGVEFEQKGTVTMGKIGNAKCRLMKQRDIVDFGTEWFRKKN | soluble
5 | SNAMPLPKSLKYGDTIGIYSPSSPVTYTSPKRFERAKSYLLQKGFHILEGSLTGRYDYYRSGSIQERAKELNALIRNPNVSCIMSTIGGMNSNSLLPYIDYDAFQNNPKIMIGYSDATALLLGIYAKTGIPTFYGPALVPSFGEFEPFVDDTYKYFLETLLHDQALPYNIKQPLFWSDEFINWEEKTKEKELRPNNWISVTNGQATGRVIGGNLNTIQGIWGSPYMPCIQEGDILFIEDSSKDAATIERSFSFLKINGVFDKVSGIILGKHEQFDDCGTNRKPYEILLEVLQNQRIPLLADFDCCHTHPMITMPIGVQVKMDATNKTIHILEKWKI | soluble
6 | SNAMSSEELEQVWSNIKSEARALAECEPMLASFFHATLLKHENLGSALSYILANKLANPIMPAIAIREVVEEAYRSDAHMIVSAARDILAVRLRDPAVDKYSTPLLYLKGFHALQAYRIGHWLWAQDRKALAIYLQNQVSVAFGVDIHPAATIGCGIMLDHATGIVIGETAVVENDVSILQSVTLGGTGKTSGDRHPKIREGVMIGAGAKILGNIEVGRGAKIGAGSVVLQSVPAHTTAAGVPARIVGKPESDKPSLDMDQHFNGSIQGFEYGDGI | soluble
7 | SNAMSVIKIEKALKLDKVIFVDVRTEGEYEEDHILNAINMPLFKNNEHNEVGTIYKMQGKHEAIQKGFDYVSYKLKDIYLQAAELALNYDNIVIYCARGGMRSGSIVNLLSSLGVNVYQLEGGYKAYRNFVLEY | soluble
8 | SNAMSVQLVKGVNLHVIPTEKYKTVRLLVRFNTRLNHETITKRTLLSSLMETNSLNYPNQVKLSERLAELYGASFGIGVSKKGNQHWFNISMNIVNDHYLQDSQVLAEAVDFLKEIIFAPNIQAGQFEAETFQREKENLKAYLESIVEDKQTYASLALQSVYFNQSEDQKIPSFGTVAALAEETAASLAAYYQKMLAEDQVDIFVLGDVNEAELVPLFKQLPFTPREEGKAAIFYNQPIRNVIEERTEREVLAQSKLNLAYNTDIYYGDSYYFALQVFNGIFGGFPHSKLFMNVREKEHLAYYASSSIDTFRGFMTVQTGIDGKNRNQVLRLISTELENIRLGKIRELEIEQTKAMLKNQYILALDNAGAWLEKEYLNELMPQTMLTAEEWIARINAVTIPEIQEVAKRLELQAIFFLEGETEND | soluble
9 | SNAMTLTALNAISPIDGRYVNKTRALSPYFSEFALTYYRLMVEIKWFESLAANDTIPEVPALDNKARKFLSDLISNFNESEAEKIKEFEKQTNHDVKAVEYYLQDKFQENEQLKSCVAFIHFACTSEDINNLAYALMIKQAIAQVIQPTIAEIMGSITLLGKQHADVAMLSRTHGQPATPTTMGKELVNFVARLKRPQQQLAEVLIPAKFNGAVGNYNAHVAAYPEVDWRKHCANFVTSLGLSFNAYTTQIEPHDGIAEVSQIMVRINNILLDYTQDIWSYISLGYFKQKTIAEEVGSSTMPHKVNPIDFENAEGNLGLSNALFIHFANKLTQSRMQRDLSDSTVLRNLGVAFSYSLIAYHSVAKGNDKLQINKSALQKDLSENWEVLAEAIQTVMRRYNEPNAYEQLKELTRGQMIDAENLKKFIKTLSIPEEAKAELMKLTPETYTGLATQLVKAFS | soluble
10 | SNANFNRFTQRAKKAIDLAFESAKSLGHNIVGSEHILLGLLREEEGIAAKVLSKVGFTEAYLEGKIVDMEGKGEEISEDIVLSPRSKQILELSGMFANKLKTNYIGTEHILLAIIQEGEGIANKILNYAGVNDRTLAQLTIDMMG | soluble
11 | SNASGQQVHRLLGNKLELASTGQTIYHQDINLNNHPWIGDHRVYDTPVIPGVSYIAMTLAAVGVPAAVEDINFQQPLFLAESNTTRETQLMLHTADNVGKQFVEVFSRDGAKQEEWQQHASMSVSENPPPPPTLSVDIPALCEQLRPLDTDTLTEIYASISLVYGPMLQAVRQAWIGEETSLLEIEVPKALAFQLAGEPIHPVLIDACTRLTPDLFDFSSDSGVFWAPWRVKEMTLSHPTPSRFYAYVEEPSRVNEQLQTRSYDIQLLDETGQAFGRINGFTVKRAPSQLFLK | soluble
12 | SNASKEKREKLEAYQHLFYLLQTNPTYLAKLIFQMPQNKSTKFMDSVIFTLYNYASNQREEYLLLRLFKTALQEEIKSKVDQIQEIVTGNPTVIKMVVSFNRGARGQNALRQILAPVVKEIMDDKSLNIKTDPVDIYKSWVNQMESQTGEASKLPYDVTPEQALAHEEVKTRLDSSIRNMRAVTDKFLSAIVSSVDKIPYGMRFIAKVLKDSLHEKFPDAGEDELLKIIGNLLYYRYMNPAIVAPDAFDIIDLSAGGQLTTDQRRNLGSIAKMLQHAASNKMFLGDNAHLSIINEYLSQSYQKFRRFFQTACDVPELQDKFNVDEYSDLVTLTKPVIYISIGEIINTHTLLLDHQDAIAPEHNDPIHELLDDLGEVPTIESLIGESS | soluble
13 | SNATAFVPALVASGLPNEKFCFEGFLPQKKGRMTKLKSLVDEHRTMVFYESPHRLLKTLTQFAEYFGPERQVSVSREISKIHEETVRGTLSELIEHFTATDPRGEIVIVLAGIDD | soluble
14 | SNATIYRMVDLPVIQPRLCTHARWPAPVYGLLVDPSLPSNPQWQNGRVHVDGTLLGTTPISGSWVSCFAAEAAYEFQSGTGEVATFTLIEQDGSAYVPGDRAAPLGYPDFSGQLEIEVQTETTKTGDKLKVTTFEMILGPTTNADQAPYQGRVFASVTAAASLDLVDGRVRAVPRSIYGFQDTIPEYNDGLLVPLAPPIGPFLPGEVLLRFRTYMRQIDTADAAAEAIDCALPQEFVSWFASNAFTVQSEALLLRYRNTLTGQLLFECKLYNEGYIALSYSGSGPLTFPTDGIFEVVSWVPRLYQLASVGSLATGRMLKQ | soluble
15 | SNDFNWTSVFNLSHNRNKIVSLNGLLDQTIEGTWFIHKVGLPYHTFYVKEFAGVDPLTGSAQYYLNTKNEDGSYNRELTTDAAKAESIPYKTATPKVSGGFTNILNYKWIDLTFTLTYSLGGYSFDKLGTYIENGSSSIYSSRYNLPAYMMNRWQKPGDQTDIPRFVYGEPATSTNSSRYIHSTDHLRLKNFTLGFTLPNQWTQKLMIDKVRVYFSGNNLLTWAKWKQYDPETPVNGEVFCEAPAMRTFSFGAQLSF | not soluble
16 | SNLYTERVLSVHHWNDTLFSFKTTRNPGLRFKTGQFVMIGLEVDGRPLMRAYSIASPNYEEHLEFFSIKVPDGPLTSRLQHLKEGDELMVSRKPTGTLVHDDLLPGKHLYLLSTGTGMAPFLSVIQDPETYERYEKVILVHGVRWVSELAYADFITKVLPEHEYFGDQVKEKLIYYPLVTREPFRNQGRQTDLMRSGKLFEDIGLPPMNPQDDRAMICGSPSMLEETSAVLDSFGLKISPRMGEPGDYLIERAFVEK | soluble
17 | SPVTKCPRKVEPPWKGWDRKAQKNGLRHQVFAVNGDHYVGEWKGNLKHGKGTQVWKKSGAVYEGDWKFGKRDGYGSLSHPDPETGKLRRVYSGWWKGDKKSGYGIQFFGPKEYYEGEWCNNQRSGWGRMYYNNGDIYEGQWQNDKPEGEGMLRLKNGNRYEGIWERGMKNGHGRFFHLDHGQLFEGYWVDNVAKCGTMIDFGRDEAPEPTQFPIPKVEILDPDGVLKEALDKLMKPEEEEG | soluble
18 | SQDEVETEVIIKDIFKQGKICFIPQYQFQSNHMDMVRLTSPEEIALLPKTSWNIHQPGEGDVREEALSTGGLDLIFLPGLGFDKDGNRLGRGKGYYDTYLKRCVQHQEVKPYTMALAFKEQICPQIPVDEHDMKVDEVLYEDSPAS | not soluble
19 | SQFVLQDLQDATLGSLLSSLMQHCDPPQRKYPLEKGTPPPWWPTGNEEWWVKLGLPKSQSPPYRKPHDLKKMWKVGVLTAVINHMLPDIAKIKRHVRQSKCLQDKMTAKESAIWLAVLNQEESLIQQ | soluble
20 | SQGRKPSSKLISFQRKLANETEIQKLNLSQSDYVVRMERVRYADKVPLVYEVASIPENLIKGFEQSEVTEHFFKTLTENGYEIGKSQQTIYARNASERVASHLEVNAGHAILALTQVSYFTDGKPFEYVHGQYVGDRFE | not soluble
21 | SRRLLNDSTGRIYQRVGKEGEKLKEEPQDLDLVWPPRLNSSAEAPQSLHPSSRGVWNELPPQSGQFSGQYGTRSRTFQSQPHPTTSSNGMVVNKHSEGSHGGELPVVNSSAGSNCCTCNCQSTLQAILQELKTMRKLMQIQAVGTQNRQQPPISLICSQRTAVSRKRNKKKKVPPKTVEPLTVKQKPSGSEMEKKSVVASELSALQAAEHTSPEESRVLGFGIVLESPSSDPEVQLAEGFDVFMPKSQLDSILSNYTRSGSLLFRKLVCAFFDDKTLANSLPNGKRKRGLNDNRKGLDQNIVGAIKVFTEKYCTANHVDKLPGPRDWVQILQDQIKLARRRLKRGSEIADSDERLDGIALPPTVV | not soluble
22 | SSAESASQIPKGQVDLLDFIDWSGVECLNQSSSHSLPNALKQGYREDEGLNLESDADEQLLIYIPFNQVIKLHSFAIKGPEEEGPKTVKFFSNKEHMCFSNVNDFPPSDTAELTEENLKGKPVVLKYVKFQNVRSLTIFIEANQSGSEVTKVQKIALYGST | soluble
23 | SSAMGAGPDHLFNLRNNFYLGAYQTAINNSEIANLSPENAVERDCLVFRSYIALGSYQLVISEIDESAATPLQAVKLLAMYLSTPQNKESTISSLKEWLADSTIGNNDTLRLIAGIIFMHEEDYNETLKHTHAGGTMDLYALNVQIFIKMHRAEYAEKQLRVMQQIDEDHTLTQLASAWLNLAVGGSKIQEAYLIFEDFSEKYPMTCLILNGKAVCCMQMGNFDEAETLLLEALNKDAKDPETLANLVVCSLHVGKSSSRHLSQLKLSHPEHILVKRVSSAEDNFERAVQLVA | soluble
